Source: PMC11063955, “A multiplexed time-resolved fluorescence resonance energy transfer ultrahigh-throughput screening assay for targeting the SMAD4–SMAD3–DNA complex” (Journal of Molecular Cell Biology, 2023)

Target: T1, His-tagged SMAD4 WT (Mothers against decapentaplegic homolog 4) (UniProt Q13485 1-552)
T1 sequence (looked up): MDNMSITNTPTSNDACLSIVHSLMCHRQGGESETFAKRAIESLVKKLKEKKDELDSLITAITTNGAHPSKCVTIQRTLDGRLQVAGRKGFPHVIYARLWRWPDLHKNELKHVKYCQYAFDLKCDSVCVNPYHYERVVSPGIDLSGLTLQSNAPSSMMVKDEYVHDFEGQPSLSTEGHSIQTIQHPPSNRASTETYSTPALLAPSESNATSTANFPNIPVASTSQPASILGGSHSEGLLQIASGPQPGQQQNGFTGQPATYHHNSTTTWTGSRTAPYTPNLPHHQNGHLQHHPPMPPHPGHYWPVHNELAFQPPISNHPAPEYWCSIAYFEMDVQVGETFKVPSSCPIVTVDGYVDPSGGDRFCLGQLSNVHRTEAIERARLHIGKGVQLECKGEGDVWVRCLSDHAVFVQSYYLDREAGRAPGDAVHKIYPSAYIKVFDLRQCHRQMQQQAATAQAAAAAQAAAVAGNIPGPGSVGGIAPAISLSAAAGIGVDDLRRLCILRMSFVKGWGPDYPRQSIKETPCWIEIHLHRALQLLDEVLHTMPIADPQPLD
Experiment: cell-based or functional assay

B1: Flag-tagged SMAD3 WT (natural protein, UniProt P84022 1-425, looked up)
chain: MSSILPFTPPIVKRLLGWKKGEQNGQEEKWCEKAVKSLVKKLKKTGQLDELEKAITTQNVNTKCITIPRSLDGRLQVSHRKGLPHVIYCRLWRWPDLHSHHELRAMELCEFAFNMKKDEVCVNPYHYQRVETPVLPPVLVPRHTEIPAEFPPLDDYSHSIPENTNFPAGIEPQSNIPETPPPGYLSEDGETSDHQMNHSMDAGSPNLSPNPMSPAHNNLDLQPVTYCEPAFWCSISYYELNQRVGETFHASQPSMTVDGFTDPSNSERFCLGLLSNVNRNAAVELTRRHIGRGVRLYYIGGEVFAECLSDSAIFVQSPNCNQRYGWHPATVCKIPPGCNLKIFNNQEFAALLAQSVNQGFEAVYQLTRMCTIRMSFVKGWGAEYRRQTVTSTPCWIELHLNGPLQWLDKVLTQMGSPSIRCSSVS
- SBE4-luciferase reporter activity upon TGFβ (10 ng/ml) stimulation, HEK293T cells with endogenous SMAD4 and SMAD3, fold-of-change: > 3 fold
